Test results: patent US20260285971 (published 2026)

T1: human GPRC5D (human)
T1 chain: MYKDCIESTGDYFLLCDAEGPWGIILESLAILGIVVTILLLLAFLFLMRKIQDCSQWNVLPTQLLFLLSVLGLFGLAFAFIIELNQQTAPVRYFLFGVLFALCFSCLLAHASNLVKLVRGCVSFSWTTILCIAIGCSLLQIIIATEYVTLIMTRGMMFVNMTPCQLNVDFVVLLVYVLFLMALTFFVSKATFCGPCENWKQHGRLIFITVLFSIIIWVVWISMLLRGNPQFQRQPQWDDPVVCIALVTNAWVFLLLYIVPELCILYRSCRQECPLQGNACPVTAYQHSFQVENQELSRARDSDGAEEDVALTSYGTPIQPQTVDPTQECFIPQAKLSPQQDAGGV


Experiments:
human GPRC5D [1] = biological target: T1, human GPRC5D; experiment: FACS NCI-H929
human GPRC5D [2] = biological target: T1, human GPRC5D; experiment: FACS RPMI-8226
human GPRC5D [3] = biological target: T1, human GPRC5D; experiment: FACS molp-8
human GPRC5D [4] = biological target: T1, human GPRC5D; experiment: ELISA
human GPRC5D [5] = biological target: T1, human GPRC5D; experiment: FACS RPMI-8226
human GPRC5D [6] = biological target: T1, human GPRC5D; experiment: ELISA
human GPRC5D [7] = biological target: T1, human GPRC5D; experiment: FACS molp-8
human GPRC5D [8] = biological target: T1, human GPRC5D; experiment: FACS NCI-H929
human GPRC5D [9] = biological target: T1, human GPRC5D; experiment: FACS molp-8
human GPRC5D [10] = biological target: T1, human GPRC5D; experiment: FACS NCI-H929
human GPRC5D [11] = biological target: T1, human GPRC5D; experiment: FACS RPMI-8226
human GPRC5D [12] = biological target: T1, human GPRC5D; experiment: ELISA

Binder | EC50 (human GPRC5D [1]) | EC50 (human GPRC5D [2]) | EC50 (human GPRC5D [3]) | EC50 (human GPRC5D [4]) | EC50 (human GPRC5D [9]) | EC50 (human GPRC5D [10]) | EC50 (human GPRC5D [11]) | EC50 (human GPRC5D [12]) | other results
HAB04-H3 (antibody, V domains shown) VH: EVQLVESGGGLVQPGGSLRLSCAASGFPYSTSRMGWFRQAPGKEREGVATIVPGTGYTYYVDSVKGRFTISQDNAKNSLYLQMNSLRAEDTAVYYCAAGDRRLLLNLLAPADYFYWGQGTMVTVSS | 1.35 nM | 2.81 nM | 3.04 nM | 0.034 nM | – | – | – | – | –
HAB04-H4 (antibody, V domains shown) VH: EVQLVESGGGLVQPGGSLRLSCAASGFPYSTSRMGWFRQAPGKEREGVATIVPGTGYTYYVDSVKGRFTISQDSAKNSLYLQMNSLRAEDTAVYYCAAGDRRLLLNLLAPADYFYWGQGTMVTVSS | 1.41 nM | 2.29 nM | 2.71 nM | 0.0382 nM | – | – | – | – | –
Lab03-huFc (antibody, V domains shown) VH: DVQLQASGGGSVQAGGSLRLSCAASGDTANCIGWFRQAPGKGREGVAAIYTGLGNTYYANSAKGRFTIAQDNAKNTVYLQMNSLKPEDSAMYYCAAGGILGRFCSRYFGQGTQVTVSS | – | – | – | – | – | – | – | – | EC50 (human GPRC5D [5]): 0.603 nM; EC50 (human GPRC5D [6]): 0.0319 nM; EC50 (human GPRC5D [7]): 0.599 nM; EC50 (human GPRC5D [8]): 0.909 nM
HAB03-H11 (antibody, V domains shown) VH: DVQLVESGGGLVQPGGSLRLSCAASGDTANCIGWFRQAPGKGREGVAAIYTGLGNTYYANSAKGRFTISQDNAKNSVYLQMNSLRAEDTAVYYCAAGGILGRFCSRYFGQGTMVTVSS | – | – | – | – | – | – | – | – | EC50 (human GPRC5D [5]): 0.627 nM; EC50 (human GPRC5D [6]): 0.0338 nM; EC50 (human GPRC5D [7]): 0.812 nM; EC50 (human GPRC5D [8]): 1.12 nM
HAB03-H9 (antibody, V domains shown) VH: EVQLVESGGGLVQPGGSLRLSCAASGDTASCIGWFRQAPGKGREGVAAIYTGLGNTYYANSAKGRFTISQDNAKNSVYLQMNSLRAEDTAVYYCAAGGILGRFCSRYFGQGTMVTVSS | – | – | – | – | – | – | – | – | EC50 (human GPRC5D [5]): 0.777 nM; EC50 (human GPRC5D [6]): 0.0326 nM; EC50 (human GPRC5D [7]): 0.849 nM; EC50 (human GPRC5D [8]): 0.895 nM
HAB03-H8 (antibody, V domains shown) VH: EVQLVESGGGLVQPGGSLRLSCAASGDTANCIGWFRQAPGKGLEGVAAIYTGLGNTYYANSAKGRFTISQDNAKNSVYLQMNSLRAEDTAVYYCAAGGILGRFCSRYFGQGTMVTVSS | – | – | – | – | – | – | – | – | EC50 (human GPRC5D [5]): 0.66 nM; EC50 (human GPRC5D [6]): 0.0462 nM; EC50 (human GPRC5D [7]): 1.22 nM; EC50 (human GPRC5D [8]): 1.41 nM
HAB03-H12 (antibody, V domains shown) VH: EVQLVASGGGLVQPGGSLRLSCAASGDTANCIGWFRQAPGKGREGVAAIYTGLGNTYYANSAKGRFTISQDNAKNSVYLQMNSLRAEDTAVYYCAAGGILGRFCSRYFGQGTMVTVSS | – | – | – | – | – | – | – | – | EC50 (human GPRC5D [5]): 51.1 nM; EC50 (human GPRC5D [6]): 0.0307 nM; EC50 (human GPRC5D [7]): 0.642 nM; EC50 (human GPRC5D [8]): 0.808 nM
HAB03-H10 (antibody, V domains shown) VH: EVQLVESGGGLVQPGGSLRLSCAASGDTANCIGWFRQAPGKGREGVAAIYTGLGNTYYANSAKGRFTISRDNAKNSVYLQMNSLRAEDTAVYYCAAGGILGRFCSRYFGQGTMVTVSS | – | – | – | – | – | – | – | – | EC50 (human GPRC5D [5]): 1.43 nM; EC50 (human GPRC5D [6]): 0.0324 nM; EC50 (human GPRC5D [7]): 0.762 nM; EC50 (human GPRC5D [8]): 0.944 nM
HAB02-H2 (antibody, V domains shown) VH: EVQLVESGGGVVQPGRSLRLSCAASGYLYMGWFRQAPGKEREGVAVIVTQSGLTYYADSVKGRFTISQDNSKNRLYLQMNSLRAEDTAVYYCAAKSRLGWTLSPSAYNYWGRGTLVTVSS | – | – | – | – | 0.742 nM | 0.299 nM | 3.56 nM | 0.0381 nM | –
HAB02-H5 (antibody, V domains shown) VH: EVQLVESGGGVVQPGRSLRLSCAASGYLYMGWFRQAPGKEREGVAAIVTQSGLTGYADSVKGRFTISQDNAKNRLYLQMNSLRAEDTAVYYCAAKSRLGWTLSPSAYNYWGRGTLVTVSS | – | – | – | – | 1.06 nM | 0.501 nM | 1.76 nM | 0.0406 nM | –
HAB02-H7 (antibody, V domains shown) VH: EVQLQASGGGVVQPGRSLRLSCAASGYLYMGWFRQAPGKEREGVAAIVTQSGLTGYADSVKGRFTISQDNSKNRLYLQMNSLRAEDTAVYYCAAKSRLGWTLSPSAYNYWGRGTLVTVSS | – | – | – | – | 0.547 nM | 0.22 nM | 0.257 nM | 0.0396 nM | –
HAB02-H6 (antibody, V domains shown) VH: DVQLVESGGGVVQPGRSLRLSCAASGYLYMGWFRQAPGKEREGVAAIVTQSGLTGYADSVKGRFTISQDNSKNRLYLQMNSLRAEDTAVYYCAAKSRLGWTLSPSAYNYWGRGTLVTVSS | – | – | – | – | 1.54 nM | 0.317 nM | 10.2 nM | 0.0362 nM | –
HAB02-H3 (antibody, V domains shown) VH: EVQLVESGGGVVQPGRSLRLSCAASGYLYMGWFRQAPGKEREGVAAIVTQSGLTYYADSVKGRFTISQDNSKNRLYLQMNSLRAEDTAVYYCAAKSRLGWTLSPSAYNYWGRGTLVTVSS | – | – | – | – | 1.6 nM | 0.51 nM | 1.88 nM | 0.042 nM | –
HAB02-H8 (antibody, V domains shown) VH: EVQLVESGGGVVQPGRSLRLSCAASGYLYMGWFRQAPGKEREGVAAIVTQSGLTGYADSVKGRFTISQDNSKNRIYLQMNSLRAEDTAVYYCAAKSRLGWTLSPSAYNYWGRGTLVTVSS | – | – | – | – | 1.06 nM | 0.401 nM | 1.5 nM | 0.0409 nM | –
HAB02-H4 (antibody, V domains shown) VH: EVQLVESGGGVVQPGRSLRLSCAASGYLYMGWFRQAPGKEREGVAAIVTQSGLTGYADSVKGRFTISQDNSKNRLYLQMNSLRAEDTAVYYCAAKSRLGWTLSPSAYNYWGRGTLVTVSS | – | – | – | – | 1.3 nM | 0.438 nM | 47.9 nM | 0.0395 nM | –
HAB02-H1 (antibody, V domains shown) VH: EVQLVESGGGVVQPGRSLRLSCAASGYLYMGWFRQAPGKEREGVAVIVTQSGLTYYADSVKGRFTISRDNSKNRLYLQMNSLRAEDTAVYYCAAKSRLGWTLSPSAYNYWGRGTLVTVSS | – | – | – | – | 0.602 nM | 0.312 nM | 3.72 nM | 0.0405 nM | –

Now from value to binder, other results behind:

EC50 (human GPRC5D [1]) | EC50 (human GPRC5D [2]) | EC50 (human GPRC5D [3]) | EC50 (human GPRC5D [4]) | EC50 (human GPRC5D [9]) | EC50 (human GPRC5D [10]) | EC50 (human GPRC5D [11]) | EC50 (human GPRC5D [12]) | Binder | other results
1.34 nM | 2.42 nM | 2.67 nM | 0.0533 nM | – | – | – | – | HAB04-H7 (antibody, V domains shown) VH: EVQLVASGGGLVQPGGSLRLSCAASGFPYSTSRMGWFRQAPGKEREGVATIVPGTGYTYYVDSVKGRFTISQDNAKNSLYLQMNSLRAEDTAVYYCAAGDRRLLLNLLAPADYFYWGQGTMVTVSS | –
1.28 nM | 1.68 nM | 1.74 nM | 0.0311 nM | – | – | – | – | HAB04-H8 (antibody, V domains shown) VH: EVQLQESGGGLVQPGGSLRLSCVASGFPYSTSRMGWFRQAPGKEREGVATIVPGTGYTYYVDSVKGRFTISQDNAKNSLYLQMNSLRAEDTAVYYCAAGDRRLLLNLLAPADYFYWGQGTMVTVSS | –
1.21 nM | 3.05 nM | 4.3 nM | 0.0481 nM | – | – | – | – | HAB04-H10 (antibody, V domains shown) VH: EVQLVASGGGLVQPGGSLRLSCAASGFPYSTSRMGWFRQAPGKEREGVATIVPGTGYTYYVDSVKGRFTISQDSAKNSLYLQMNSLRAEDTAVYYCAAGDRRLLLNLLAPADYFYWGQGTMVTVSS | –
1.02 nM | 2.05 nM | 2.8 nM | 0.0333 nM | – | – | – | – | HAB04-H5 (antibody, V domains shown) VH: EVQLVESGGGLVQPGGSLRLSCAASGFPYSTSRVGWFRQAPGKEREGVATIVPGTGYTYYVDSVKGRFTISQDNAKNSVYLQMNSLRAEDTAVYYCAAGDRRLLLNLLAPADYFYWGQGTMVTVSS | –
0.711 nM | 1.64 nM | 1.35 nM | 0.0349 nM | – | – | – | – | HAB04-H14 (antibody, V domains shown) VH: EVQLVASGGGLVQPGGSLRLSCAASGFPYSTSRMGWFRQAPGKEREGVATIVPGTGYTYYADSVKGRFTISQDNAKNSLYLQMNSLRAEDTAVYYCAAGDRRLLLNLLAPADYFYWGQGTMVTVSS | –
– | – | – | – | 0.875 nM | 0.672 nM | 1.75 nM | 0.053 nM | Lab02-huFc (antibody, V domains shown) VH: DVQLQASGGGSVQAGESLRLSCAASGYLYMGWFRQAPGKEREGVAAIVTQSGLTGYADSVKGRFTISQDNAENRIYLQMNSLKPEDTAMYYCAAKSRLGWTLSPSAYNYWGRGTQVTVSS | –
0.915 nM | 2.49 nM | 1.97 nM | 0.0353 nM | – | – | – | – | Lab04-huFc (antibody, V domains shown) VH: EVQLQASGGGSVQAGGSLRLSCVASGFPYSTSRVGWFRQAPGKEREGVATIVPGTGYTYYADSVKGRFTISQDSAKNTVYLQMNSLKPEDTAVYYCAAGDRRLLLNLLAPADYFYWGQGTQVTVSS | –
